The results in this text go back to patent US20110313230A1.

Assay [1] concerns the target wild-type EGFR (human) (UniProt P00533). The assay can be described thus: Scatchard, 125I-528 on A431 cells.
The target in assay [2] is de2-7 EGFR (human) (UniProt P00533). The assay can be described thus: immunohistochemistry, glioblastoma pre-typed: EGFR amplified, de2-7 EGFR expressed.
In assay [3] the target is wild-type EGFR (human) (UniProt P00533). The assay can be described thus: immunohistochemistry, glioblastoma pre-typed: EGFR amplified, no de2-7 EGFR expression.

In assay [1], mAb528 (antibody) had a receptors per cell (receptors per cell) of 2e+06. In addition, the percent of immunoreactive cells in assay [2] and in assay [3] was more than 75% throughout.
